The values that follow are results of earlier work, collected in publication PMC3763834.

pKd: −log10 of the molar value. Where “and” joins values, the source holds several entries; their conditions need not be identical. Equal entries are not always repeated.

The target of this data set is PKA catalytic subunit (UniProt P17612).

In general, pKd refers to the Kd on a negative log10 scale, so that one unit is a factor of ten. For the substance PKA RII subunit (from UniProt P13861), the pKd is 9.00 and 10.00.
